The values that follow come from patent US20220402985A1.

The target in assay [1] is ErbB3 on rat Schwann cells (rat) (UniProt Q62799). The experiment in a line: cell-based or functional assay.
The target in assay [2] is ErbB4 on neonatal rat cardiomyocytes (rat) (UniProt Q62956). The experiment in a line: cell-based or functional assay.
Chain of ErbB4 on neonatal rat cardiomyocytes (rat) (Q62956 26-1308): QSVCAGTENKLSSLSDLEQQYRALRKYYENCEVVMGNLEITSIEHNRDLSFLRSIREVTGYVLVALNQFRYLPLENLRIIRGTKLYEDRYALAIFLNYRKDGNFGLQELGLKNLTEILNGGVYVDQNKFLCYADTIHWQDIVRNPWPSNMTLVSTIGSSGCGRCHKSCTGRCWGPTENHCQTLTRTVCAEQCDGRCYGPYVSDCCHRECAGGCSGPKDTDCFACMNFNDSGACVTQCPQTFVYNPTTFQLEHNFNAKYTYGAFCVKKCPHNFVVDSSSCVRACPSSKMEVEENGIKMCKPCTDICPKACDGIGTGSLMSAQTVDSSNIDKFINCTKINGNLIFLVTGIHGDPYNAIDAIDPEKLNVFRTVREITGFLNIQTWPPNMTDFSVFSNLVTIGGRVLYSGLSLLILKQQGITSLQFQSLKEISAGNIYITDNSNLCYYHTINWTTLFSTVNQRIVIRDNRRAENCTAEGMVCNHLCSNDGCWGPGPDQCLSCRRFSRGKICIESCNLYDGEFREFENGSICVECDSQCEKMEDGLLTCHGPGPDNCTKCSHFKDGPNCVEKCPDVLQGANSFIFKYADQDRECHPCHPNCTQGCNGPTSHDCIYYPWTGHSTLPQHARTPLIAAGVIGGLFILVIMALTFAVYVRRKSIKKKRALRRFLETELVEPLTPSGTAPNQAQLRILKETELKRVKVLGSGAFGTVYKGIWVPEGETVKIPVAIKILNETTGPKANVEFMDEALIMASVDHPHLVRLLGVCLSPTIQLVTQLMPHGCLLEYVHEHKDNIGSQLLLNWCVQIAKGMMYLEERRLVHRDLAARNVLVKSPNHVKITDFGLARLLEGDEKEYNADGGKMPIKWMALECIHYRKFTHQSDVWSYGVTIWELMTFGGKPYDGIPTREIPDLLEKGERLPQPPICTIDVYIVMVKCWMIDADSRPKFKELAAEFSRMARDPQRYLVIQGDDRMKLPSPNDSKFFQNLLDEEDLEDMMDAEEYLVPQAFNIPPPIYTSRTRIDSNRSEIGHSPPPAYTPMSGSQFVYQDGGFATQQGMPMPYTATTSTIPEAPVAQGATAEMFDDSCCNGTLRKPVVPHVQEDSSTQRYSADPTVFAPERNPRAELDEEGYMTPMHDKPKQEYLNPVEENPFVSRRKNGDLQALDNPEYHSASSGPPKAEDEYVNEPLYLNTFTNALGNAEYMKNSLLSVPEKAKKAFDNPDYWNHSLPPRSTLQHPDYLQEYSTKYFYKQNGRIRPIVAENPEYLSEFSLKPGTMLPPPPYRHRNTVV

Chain of ErbB3 on rat Schwann cells (rat) (Q62799 20-1339): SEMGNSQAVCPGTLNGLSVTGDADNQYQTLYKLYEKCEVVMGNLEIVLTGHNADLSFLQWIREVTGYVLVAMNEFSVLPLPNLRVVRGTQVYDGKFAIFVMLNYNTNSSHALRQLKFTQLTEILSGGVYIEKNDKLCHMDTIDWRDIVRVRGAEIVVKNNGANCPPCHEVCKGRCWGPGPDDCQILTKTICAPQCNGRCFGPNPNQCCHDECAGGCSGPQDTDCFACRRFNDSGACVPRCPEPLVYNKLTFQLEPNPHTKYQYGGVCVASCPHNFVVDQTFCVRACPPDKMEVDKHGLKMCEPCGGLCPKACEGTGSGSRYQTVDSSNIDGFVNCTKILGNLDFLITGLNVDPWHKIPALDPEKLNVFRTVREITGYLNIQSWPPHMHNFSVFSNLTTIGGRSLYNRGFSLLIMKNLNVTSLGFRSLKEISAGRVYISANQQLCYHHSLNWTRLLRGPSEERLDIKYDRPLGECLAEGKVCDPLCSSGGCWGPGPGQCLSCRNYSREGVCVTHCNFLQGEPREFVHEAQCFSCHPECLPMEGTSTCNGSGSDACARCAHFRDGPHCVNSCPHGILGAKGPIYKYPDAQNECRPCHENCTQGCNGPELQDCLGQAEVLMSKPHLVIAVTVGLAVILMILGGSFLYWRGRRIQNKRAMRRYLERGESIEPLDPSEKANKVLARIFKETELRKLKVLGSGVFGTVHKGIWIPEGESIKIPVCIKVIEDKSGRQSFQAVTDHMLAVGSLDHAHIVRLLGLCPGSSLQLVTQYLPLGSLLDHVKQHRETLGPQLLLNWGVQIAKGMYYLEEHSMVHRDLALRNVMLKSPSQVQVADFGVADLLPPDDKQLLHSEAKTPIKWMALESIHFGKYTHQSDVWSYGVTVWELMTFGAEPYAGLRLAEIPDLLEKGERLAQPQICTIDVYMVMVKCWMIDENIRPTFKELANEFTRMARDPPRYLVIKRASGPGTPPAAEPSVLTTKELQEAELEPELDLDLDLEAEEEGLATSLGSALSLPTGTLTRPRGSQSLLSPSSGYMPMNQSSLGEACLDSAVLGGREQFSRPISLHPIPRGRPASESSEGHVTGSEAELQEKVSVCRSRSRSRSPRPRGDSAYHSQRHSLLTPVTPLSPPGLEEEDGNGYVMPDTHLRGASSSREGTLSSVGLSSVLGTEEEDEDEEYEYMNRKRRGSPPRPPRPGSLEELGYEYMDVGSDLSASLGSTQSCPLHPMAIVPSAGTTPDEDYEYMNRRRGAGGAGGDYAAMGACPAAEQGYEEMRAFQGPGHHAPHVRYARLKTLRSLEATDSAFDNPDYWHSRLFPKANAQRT

B1: huNRG1(S177-Q237)(1A1)::GG::huFcSEFL2 (Pb) (Fc fusion)
chain: SHLVKCGESEKSFCVNGGECYVIEDSSIPSRFLCKCPNEFTGDRCQNVFLASFYKAEELYQGGDKTHTCPPCPAPELLGGPSVFLFPPKPKDTLMISRTPEVTCVVVDVSHEDPEVKFNWYVDGVEVHNAKTKPCEEQYGSTYRCVSVLTVLHQDWLNGKEYKCKVSNKALPAPIEKTISKAKGQPREPQVYTLPPSREEMTKNQVSLTCLVKGFYPSDIAVEWESNGQPENNYKTTPPVLDSDGSFFLYSKLTVDKSRWQQGNVFSCSVMHEALHNHYTQKSLSLSPGK
B1 had a Schwann cells (SC) (ErbB3) Avg EC50 in assay [1] of 9.11 nM. Also, in assay [2], the Cardiomyocyte (CM) (ErbB4) Avg EC50 came to 133 pM and the Selectivity SC/CM came to 69.

B2: huNRG1(S177-Q237)(1B4)::GG::huFcSEFL2 (Pb) (Fc fusion)
chain: SHLVKCGERDKTFCVNGGECFMIEDSSNPSRYLCKCPNEFTGDRCQKDFMASFYKAEELYQGGDKTHTCPPCPAPELLGGPSVFLFPPKPKDTLMISRTPEVTCVVVDVSHEDPEVKFNWYVDGVEVHNAKTKPCEEQYGSTYRCVSVLTVLHQDWLNGKEYKCKVSNKALPAPIEKTISKAKGQPREPQVYTLPPSREEMTKNQVSLTCLVKGFYPSDIAVEWESNGQPENNYKTTPPVLDSDGSFFLYSKLTVDKSRWQQGNVFSCSVMHEALHNHYTQKSLSLSPGK
In assay [1], B2 displayed a Schwann cells (SC) (ErbB3) Avg EC50 of 10000 nM. In assay [2], this molecule registered a Cardiomyocyte (CM) (ErbB4) Avg EC50 of 996 pM and a Selectivity SC/CM of more than 10000.

B3: huNRG1(S177-Q237)(2H7)::GG::huFcSEFL2 (Pb) (Fc fusion)
chain: SHLVKCGEKEKSFCVNGGECYVVEDLSIPSRFLCKCPNEFTGDRCQKVVMASFYKAEELYQGGDKTHTCPPCPAPELLGGPSVFLFPPKPKDTLMISRTPEVTCVVVDVSHEDPEVKFNWYVDGVEVHNAKTKPCEEQYGSTYRCVSVLTVLHQDWLNGKEYKCKVSNKALPAPIEKTISKAKGQPREPQVYTLPPSREEMTKNQVSLTCLVKGFYPSDIAVEWESNGQPENNYKTTPPVLDSDGSFFLYSKLTVDKSRWQQGNVFSCSVMHEALHNHYTQKSLSLSPGK
B3 registered a Schwann cells (SC) (ErbB3) Avg EC50 in assay [1] of 110 nM. In assay [2], the CM % Agonism AVG was less than 50%, the Cardiomyocyte (CM) (ErbB4) Avg EC50 was 300 pM and the Selectivity SC/CM stood at 368.

B4: huNRG1(S177-Q237)(2F2)::GG::huFcSEFL2 (Pb) (Fc fusion)
chain: SHLVKCAESEKTFCVNGGECYMIEHPSNPSRFLCKCPNEFTGDRCQNVFMASFYKAEELYQGGDKTHTCPPCPAPELLGGPSVFLFPPKPKDTLMISRTPEVTCVVVDVSHEDPEVKFNWYVDGVEVHNAKTKPCEEQYGSTYRCVSVLTVLHQDWLNGKEYKCKVSNKALPAPIEKTISKAKGQPREPQVYTLPPSREEMTKNQVSLTCLVKGFYPSDIAVEWESNGQPENNYKTTPPVLDSDGSFFLYSKLTVDKSRWQQGNVFSCSVMHEALHNHYTQKSLSLSPGK
Turning to B4, the Schwann cells (SC) (ErbB3) Avg EC50 in assay [1] turned out to be 202 nM. Also, in assay [2], the Cardiomyocyte (CM) (ErbB4) Avg EC50 came to 244 pM and the Selectivity SC/CM was 826.

B5: huNRG1(S177-Q237)(1A12)::GG::huFcSEFL2 (Pb) (Fc fusion)
chain: SHLVKCAEKHKSFCVNGGECYVVERPSIPSRYLCKCPNEFTGDRCQKFFMASFYKAEELYQGGDKTHTCPPCPAPELLGGPSVFLFPPKPKDTLMISRTPEVTCVVVDVSHEDPEVKFNWYVDGVEVHNAKTKPCEEQYGSTYRCVSVLTVLHQDWLNGKEYKCKVSNKALPAPIEKTISKAKGQPREPQVYTLPPSREEMTKNQVSLTCLVKGFYPSDIAVEWESNGQPENNYKTTPPVLDSDGSFFLYSKLTVDKSRWQQGNVFSCSVMHEALHNHYTQKSLSLSPGK
In the case of B5, the Schwann cells (SC) (ErbB3) Avg EC50 in assay [1] came to 47.9 nM. Moreover, in assay [2], the Cardiomyocyte (CM) (ErbB4) Avg EC50 is 722 pM and the Selectivity SC/CM was 66.

B6: huNRG1(S177-Q237)(1D10)::GG::huFcSEFL2 (Pb) (Fc fusion)
chain: SHLVKCAERDKTFCVNGGECYMIEDLSIPSRYLCKCPNEFTGDRCQKDFMASFYKAEELYQGGDKTHTCPPCPAPELLGGPSVFLFPPKPKDTLMISRTPEVTCVVVDVSHEDPEVKFNWYVDGVEVHNAKTKPCEEQYGSTYRCVSVLTVLHQDWLNGKEYKCKVSNKALPAPIEKTISKAKGQPREPQVYTLPPSREEMTKNQVSLTCLVKGFYPSDIAVEWESNGQPENNYKTTPPVLDSDGSFFLYSKLTVDKSRWQQGNVFSCSVMHEALHNHYTQKSLSLSPGK
B6 registered a Schwann cells (SC) (ErbB3) Avg EC50 in assay [1] of more than 3000 nM. Further, in assay [2], the Cardiomyocyte (CM) (ErbB4) Avg EC50 was 741 pM and the Selectivity SC/CM was more than 4000.

B7: huNRG1(S177-Q237)(1C11)::GG::huFcSEFL2 (Pb) (Fc fusion)
chain: SHLVKCGEKEKTFCVNGGECYMVERPSIPSRFLCKCPNEFTGDRCQKFFMASFYKAEELYQGGDKTHTCPPCPAPELLGGPSVFLFPPKPKDTLMISRTPEVTCVVVDVSHEDPEVKFNWYVDGVEVHNAKTKPCEEQYGSTYRCVSVLTVLHQDWLNGKEYKCKVSNKALPAPIEKTISKAKGQPREPQVYTLPPSREEMTKNQVSLTCLVKGFYPSDIAVEWESNGQPENNYKTTPPVLDSDGSFFLYSKLTVDKSRWQQGNVFSCSVMHEALHNHYTQKSLSLSPGK
Molecule B7 returned a Schwann cells (SC) (ErbB3) Avg EC50 in assay [1] of 87 nM. In assay [2], this molecule gave a Cardiomyocyte (CM) (ErbB4) Avg EC50 of 1100 pM and a Selectivity SC/CM of 79.

B8: huNRG1(S177-Q237)(2E3)::GG::huFcSEFL2 (Pb) (Fc fusion)
chain: SHLVKCGEKEKSFCVNGGECYMIEGLSIPSRFLCKCPNEFTGDRCQDVFMASFYKAEELYQGGDKTHTCPPCPAPELLGGPSVFLFPPKPKDTLMISRTPEVTCVVVDVSHEDPEVKFNWYVDGVEVHNAKTKPCEEQYGSTYRCVSVLTVLHQDWLNGKEYKCKVSNKALPAPIEKTISKAKGQPREPQVYTLPPSREEMTKNQVSLTCLVKGFYPSDIAVEWESNGQPENNYKTTPPVLDSDGSFFLYSKLTVDKSRWQQGNVFSCSVMHEALHNHYTQKSLSLSPGK
B8 gave a Schwann cells (SC) (ErbB3) Avg EC50 in assay [1] of 1000 nM. In assay [2], the CM % Agonism AVG is less than 50%, the Cardiomyocyte (CM) (ErbB4) Avg EC50 was 658 pM and the Selectivity SC/CM stood at 1520.

B9: huNRG1(S177-Q237)(1B9)::GG::huFcSEFL2 (Pb) (Fc fusion)
chain: SHLVKCAEKHKSFCVNGGECFMVEDLSIPSRYLCKCPNEFTGDRCQDVFMASFYKAEELYQGGDKTHTCPPCPAPELLGGPSVFLFPPKPKDTLMISRTPEVTCVVVDVSHEDPEVKFNWYVDGVEVHNAKTKPCEEQYGSTYRCVSVLTVLHQDWLNGKEYKCKVSNKALPAPIEKTISKAKGQPREPQVYTLPPSREEMTKNQVSLTCLVKGFYPSDIAVEWESNGQPENNYKTTPPVLDSDGSFFLYSKLTVDKSRWQQGNVFSCSVMHEALHNHYTQKSLSLSPGK
Molecule B9 showed a Schwann cells (SC) (ErbB3) Avg EC50 in assay [1] of 1000 nM. In assay [2], this molecule yielded a CM % Agonism AVG of less than 50%, a Cardiomyocyte (CM) (ErbB4) Avg EC50 of 1920 pM and a Selectivity SC/CM of 520.

B10: huNRG1(S177-Q237)(1A7)::GG::huFcSEFL2 (Pb) (Fc fusion)
chain: SHLVKCAERDKSFCVNGGECYVIEHLSNPSRFLCKCPNEFTGDRCQKDFMASFYKAEELYQGGDKTHTCPPCPAPELLGGPSVFLFPPKPKDTLMISRTPEVTCVVVDVSHEDPEVKFNWYVDGVEVHNAKTKPCEEQYGSTYRCVSVLTVLHQDWLNGKEYKCKVSNKALPAPIEKTISKAKGQPREPQVYTLPPSREEMTKNQVSLTCLVKGFYPSDIAVEWESNGQPENNYKTTPPVLDSDGSFFLYSKLTVDKSRWQQGNVFSCSVMHEALHNHYTQKSLSLSPGK
B10: the Schwann cells (SC) (ErbB3) Avg EC50 in assay [1] was determined as 1000 nM. In assay [2], this molecule gave a Cardiomyocyte (CM) (ErbB4) Avg EC50 of 619 pM and a Selectivity SC/CM of 1620.

B11: huNRG1(S177-Q237)(2E4)::GG::huFcSEFL2 (Pb) (Fc fusion)
chain: SHLVKCGESDKSFCVNGGECFMVKRPSNPSRYLCKCPNEFTGDRCQKVFLASFYKAEELYQGGDKTHTCPPCPAPELLGGPSVFLFPPKPKDTLMISRTPEVTCVVVDVSHEDPEVKFNWYVDGVEVHNAKTKPCEEQYGSTYRCVSVLTVLHQDWLNGKEYKCKVSNKALPAPIEKTISKAKGQPREPQVYTLPPSREEMTKNQVSLTCLVKGFYPSDIAVEWESNGQPENNYKTTPPVLDSDGSFFLYSKLTVDKSRWQQGNVFSCSVMHEALHNHYTQKSLSLSPGK
In assay [1], B11 displayed a Schwann cells (SC) (ErbB3) Avg EC50 of 61.5 nM. In assay [2], this molecule had a Cardiomyocyte (CM) (ErbB4) Avg EC50 of 429 pM and a Selectivity SC/CM of 143.

B12: huNRG1(S177-Q237)(2G3)::GG::huFcSEFL2 (Pb) (Fc fusion)
chain: SHLVKCGERQKSFCVNGGECYMVEDLSIPSRYLCKCPNEFTGDRCQKVFMASFYKAEELYQGGDKTHTCPPCPAPELLGGPSVFLFPPKPKDTLMISRTPEVTCVVVDVSHEDPEVKFNWYVDGVEVHNAKTKPCEEQYGSTYRCVSVLTVLHQDWLNGKEYKCKVSNKALPAPIEKTISKAKGQPREPQVYTLPPSREEMTKNQVSLTCLVKGFYPSDIAVEWESNGQPENNYKTTPPVLDSDGSFFLYSKLTVDKSRWQQGNVFSCSVMHEALHNHYTQKSLSLSPGK
For the molecule B12, the Schwann cells (SC) (ErbB3) Avg EC50 in assay [1] turned out to be 60.8 nM. Moreover, in assay [2], the Cardiomyocyte (CM) (ErbB4) Avg EC50 came to 208 pM and the Selectivity SC/CM amounted to 292.

B13: huNRG1(S177-Q237)(3A7)::GG::huFcSEFL2 (Pb) (Fc fusion)
chain: SHLVKCAEKEKSFCVNGGECFVIEGSSIPSRFLCKCPNEFTGDRCQKVVMASFYKAEELYQGGDKTHTCPPCPAPELLGGPSVFLFPPKPKDTLMISRTPEVTCVVVDVSHEDPEVKFNWYVDGVEVHNAKTKPCEEQYGSTYRCVSVLTVLHQDWLNGKEYKCKVSNKALPAPIEKTISKAKGQPREPQVYTLPPSREEMTKNQVSLTCLVKGFYPSDIAVEWESNGQPENNYKTTPPVLDSDGSFFLYSKLTVDKSRWQQGNVFSCSVMHEALHNHYTQKSLSLSPGK
B13: the Schwann cells (SC) (ErbB3) Avg EC50 in assay [1] is 46.5 nM. In assay [2], this molecule registered a CM % Agonism AVG of less than 50%, a Cardiomyocyte (CM) (ErbB4) Avg EC50 of 366 pM and a Selectivity SC/CM of 127.

B14: huNRG1(S177-Q237)(2G4)::GG::huFcSEFL2 (Pb) (Fc fusion)
chain: SHLVKCAENEKTFCVNGGECFVVEGLSIPSRYLCKCPNEFTGDRCQDVFMASFYKAEELYQGGDKTHTCPPCPAPELLGGPSVFLFPPKPKDTLMISRTPEVTCVVVDVSHEDPEVKFNWYVDGVEVHNAKTKPCEEQYGSTYRCVSVLTVLHQDWLNGKEYKCKVSNKALPAPIEKTISKAKGQPREPQVYTLPPSREEMTKNQVSLTCLVKGFYPSDIAVEWESNGQPENNYKTTPPVLDSDGSFFLYSKLTVDKSRWQQGNVFSCSVMHEALHNHYTQKSLSLSPGK
B14 came in with a Schwann cells (SC) (ErbB3) Avg EC50 in assay [1] of 1000 nM. In assay [2], this molecule showed a CM % Agonism AVG of less than 50%, a Cardiomyocyte (CM) (ErbB4) Avg EC50 of 2420 pM and a Selectivity SC/CM of 414.
